Publication PMC8641752

Legend:
Assay in all cases: co-IP; substrate (Hmg2-GFP, Ste6*-GFP, CPY*-GFP with GFP-Trap; Pdr5*-Myc with Myc Trap) precipitated from yeast microsomes solubilised in Tween IP buffer (500 mM NaCl, 50 mM Tris pH 7.5, 10 mM EDTA, 1.5% Tween-20), overnight 4°C; blots with anti-HA, anti-Cdc48
[1] = molecular target: Pdr5*-Myc (S. cerevisiae) (UniProt P33302)
[2] = molecular target: Ste6*-GFP (S. cerevisiae) (UniProt P12866)
Hmg2-GFP (S. cerevisiae) = Hmg2-GFP (S. cerevisiae) (UniProt P12684)

Measured: fraction of Dfm1-5Ashp bound compared with wild-type Dfm1

Sequence of Dfm1-5Ashp (Q12743 whole entry): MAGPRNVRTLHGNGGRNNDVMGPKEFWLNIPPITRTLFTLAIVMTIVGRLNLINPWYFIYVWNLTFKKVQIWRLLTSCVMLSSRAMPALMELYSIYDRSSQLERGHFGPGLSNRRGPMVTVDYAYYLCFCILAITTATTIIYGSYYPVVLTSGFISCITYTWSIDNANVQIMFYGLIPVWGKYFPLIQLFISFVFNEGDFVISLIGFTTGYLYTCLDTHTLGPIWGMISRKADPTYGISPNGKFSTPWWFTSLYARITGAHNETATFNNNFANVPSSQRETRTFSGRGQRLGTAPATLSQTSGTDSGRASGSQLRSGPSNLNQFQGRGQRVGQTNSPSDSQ
Sequence of UniProt P12866 (P12866 whole entry): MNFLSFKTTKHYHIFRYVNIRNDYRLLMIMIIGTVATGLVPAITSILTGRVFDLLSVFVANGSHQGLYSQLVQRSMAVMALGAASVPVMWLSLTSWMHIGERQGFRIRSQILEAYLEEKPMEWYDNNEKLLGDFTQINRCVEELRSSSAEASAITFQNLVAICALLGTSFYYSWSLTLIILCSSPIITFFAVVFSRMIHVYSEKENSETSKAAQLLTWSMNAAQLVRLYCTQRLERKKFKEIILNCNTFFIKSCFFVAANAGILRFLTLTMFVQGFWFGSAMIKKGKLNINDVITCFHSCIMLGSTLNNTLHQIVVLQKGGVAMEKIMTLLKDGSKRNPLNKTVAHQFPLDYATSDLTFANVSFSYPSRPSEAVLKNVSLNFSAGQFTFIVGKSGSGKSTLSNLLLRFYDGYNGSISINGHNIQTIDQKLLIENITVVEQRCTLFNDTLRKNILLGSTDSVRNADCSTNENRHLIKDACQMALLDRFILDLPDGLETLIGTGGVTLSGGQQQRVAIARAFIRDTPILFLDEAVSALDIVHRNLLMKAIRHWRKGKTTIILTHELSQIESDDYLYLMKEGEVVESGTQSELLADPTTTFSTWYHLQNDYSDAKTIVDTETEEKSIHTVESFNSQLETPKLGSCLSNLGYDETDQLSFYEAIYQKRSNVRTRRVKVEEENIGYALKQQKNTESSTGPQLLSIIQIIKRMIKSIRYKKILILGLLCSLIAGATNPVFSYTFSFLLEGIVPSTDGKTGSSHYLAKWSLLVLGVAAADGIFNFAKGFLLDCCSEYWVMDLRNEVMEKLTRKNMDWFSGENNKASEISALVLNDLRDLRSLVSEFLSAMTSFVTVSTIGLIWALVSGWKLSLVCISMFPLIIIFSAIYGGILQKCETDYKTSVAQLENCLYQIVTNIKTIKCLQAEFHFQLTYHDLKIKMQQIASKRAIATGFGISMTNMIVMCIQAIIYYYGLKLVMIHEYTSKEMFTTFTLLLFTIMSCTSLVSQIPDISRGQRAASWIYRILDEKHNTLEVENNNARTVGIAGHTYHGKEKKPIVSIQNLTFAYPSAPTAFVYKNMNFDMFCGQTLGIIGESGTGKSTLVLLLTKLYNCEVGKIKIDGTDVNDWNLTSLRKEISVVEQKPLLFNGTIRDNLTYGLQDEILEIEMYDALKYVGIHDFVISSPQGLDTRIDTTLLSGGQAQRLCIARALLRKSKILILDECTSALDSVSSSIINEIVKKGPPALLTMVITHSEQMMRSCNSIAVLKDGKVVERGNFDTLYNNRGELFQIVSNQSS
Sequence of UniProt P33302 (P33302 whole entry): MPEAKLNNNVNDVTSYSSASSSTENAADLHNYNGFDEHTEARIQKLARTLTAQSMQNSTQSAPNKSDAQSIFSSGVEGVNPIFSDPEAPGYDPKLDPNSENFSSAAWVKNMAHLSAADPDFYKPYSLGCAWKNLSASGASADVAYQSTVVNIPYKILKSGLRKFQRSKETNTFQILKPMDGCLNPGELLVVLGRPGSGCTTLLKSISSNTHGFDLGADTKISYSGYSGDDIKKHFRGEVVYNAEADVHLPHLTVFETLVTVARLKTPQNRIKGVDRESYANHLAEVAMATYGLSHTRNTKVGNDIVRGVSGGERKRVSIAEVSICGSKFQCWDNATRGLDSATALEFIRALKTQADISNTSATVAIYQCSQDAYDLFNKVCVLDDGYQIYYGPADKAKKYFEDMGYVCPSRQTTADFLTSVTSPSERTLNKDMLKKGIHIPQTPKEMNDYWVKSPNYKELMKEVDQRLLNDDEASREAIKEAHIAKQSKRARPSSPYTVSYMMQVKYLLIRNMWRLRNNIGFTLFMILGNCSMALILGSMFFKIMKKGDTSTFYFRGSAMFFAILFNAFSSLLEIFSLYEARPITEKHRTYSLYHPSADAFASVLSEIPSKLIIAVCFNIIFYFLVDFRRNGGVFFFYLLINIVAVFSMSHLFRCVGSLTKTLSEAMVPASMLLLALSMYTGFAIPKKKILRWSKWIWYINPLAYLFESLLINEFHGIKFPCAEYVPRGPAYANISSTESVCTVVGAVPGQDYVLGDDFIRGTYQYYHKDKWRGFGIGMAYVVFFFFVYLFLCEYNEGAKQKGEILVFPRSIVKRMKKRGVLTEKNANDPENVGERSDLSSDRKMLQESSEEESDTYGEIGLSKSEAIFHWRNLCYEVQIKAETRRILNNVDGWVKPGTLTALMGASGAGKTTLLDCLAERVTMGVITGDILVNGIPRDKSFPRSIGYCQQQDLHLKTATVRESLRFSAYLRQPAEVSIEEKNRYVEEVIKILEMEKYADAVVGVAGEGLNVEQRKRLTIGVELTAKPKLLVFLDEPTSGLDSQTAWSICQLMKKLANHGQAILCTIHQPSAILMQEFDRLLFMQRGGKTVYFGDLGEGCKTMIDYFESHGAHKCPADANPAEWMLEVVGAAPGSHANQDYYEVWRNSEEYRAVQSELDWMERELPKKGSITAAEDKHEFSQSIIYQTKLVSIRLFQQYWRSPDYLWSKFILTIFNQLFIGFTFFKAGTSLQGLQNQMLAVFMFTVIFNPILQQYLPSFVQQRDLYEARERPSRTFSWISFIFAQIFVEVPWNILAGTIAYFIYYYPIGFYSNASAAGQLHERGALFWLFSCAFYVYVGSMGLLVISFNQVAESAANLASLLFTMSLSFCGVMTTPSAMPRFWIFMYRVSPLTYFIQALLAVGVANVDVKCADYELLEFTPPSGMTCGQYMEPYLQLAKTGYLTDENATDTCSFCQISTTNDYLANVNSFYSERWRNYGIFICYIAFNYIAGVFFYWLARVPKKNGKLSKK
Sequence of UniProt P12684 (P12684 whole entry): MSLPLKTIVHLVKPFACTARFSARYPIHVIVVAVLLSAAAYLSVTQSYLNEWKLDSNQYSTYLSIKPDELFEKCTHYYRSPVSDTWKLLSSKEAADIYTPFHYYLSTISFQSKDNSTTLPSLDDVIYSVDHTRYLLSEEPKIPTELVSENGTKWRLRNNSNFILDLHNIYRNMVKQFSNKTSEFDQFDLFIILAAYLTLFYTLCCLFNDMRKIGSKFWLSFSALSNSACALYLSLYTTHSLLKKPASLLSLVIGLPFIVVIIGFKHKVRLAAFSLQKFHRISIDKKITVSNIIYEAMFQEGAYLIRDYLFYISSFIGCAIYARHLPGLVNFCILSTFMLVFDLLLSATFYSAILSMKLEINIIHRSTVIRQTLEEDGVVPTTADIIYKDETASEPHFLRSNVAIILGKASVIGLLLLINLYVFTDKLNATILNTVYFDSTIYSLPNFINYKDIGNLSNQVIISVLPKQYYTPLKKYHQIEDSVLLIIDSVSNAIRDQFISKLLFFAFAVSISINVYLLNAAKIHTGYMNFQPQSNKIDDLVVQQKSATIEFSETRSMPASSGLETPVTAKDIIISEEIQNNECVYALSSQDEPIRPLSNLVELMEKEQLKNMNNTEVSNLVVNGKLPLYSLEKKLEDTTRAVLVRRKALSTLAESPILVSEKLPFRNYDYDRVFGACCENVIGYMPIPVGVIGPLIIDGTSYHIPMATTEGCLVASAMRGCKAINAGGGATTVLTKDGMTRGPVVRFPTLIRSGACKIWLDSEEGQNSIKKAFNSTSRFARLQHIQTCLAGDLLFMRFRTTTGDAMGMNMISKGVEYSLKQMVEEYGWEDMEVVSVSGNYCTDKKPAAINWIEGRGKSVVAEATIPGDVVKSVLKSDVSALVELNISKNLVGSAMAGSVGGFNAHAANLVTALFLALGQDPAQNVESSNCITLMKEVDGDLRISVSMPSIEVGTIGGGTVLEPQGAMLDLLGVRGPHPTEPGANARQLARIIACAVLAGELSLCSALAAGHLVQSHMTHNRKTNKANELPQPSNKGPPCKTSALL

Dfm1-5Ashp (from UniProt Q12743 1-341) (natural protein)
< 5%: all assays above
